The record followed here is publication PMC4535689.

Assay [1] has as its target mouse NGL-1 extracellular fragment (LRR and Ig domains) (mouse). Description: AUC.
The target of assay [2] is T1, human NGL-2 extracellular fragment (LRR and Ig domains) (human).
T1 sequence (Q9HBW1 whole entry, looked up): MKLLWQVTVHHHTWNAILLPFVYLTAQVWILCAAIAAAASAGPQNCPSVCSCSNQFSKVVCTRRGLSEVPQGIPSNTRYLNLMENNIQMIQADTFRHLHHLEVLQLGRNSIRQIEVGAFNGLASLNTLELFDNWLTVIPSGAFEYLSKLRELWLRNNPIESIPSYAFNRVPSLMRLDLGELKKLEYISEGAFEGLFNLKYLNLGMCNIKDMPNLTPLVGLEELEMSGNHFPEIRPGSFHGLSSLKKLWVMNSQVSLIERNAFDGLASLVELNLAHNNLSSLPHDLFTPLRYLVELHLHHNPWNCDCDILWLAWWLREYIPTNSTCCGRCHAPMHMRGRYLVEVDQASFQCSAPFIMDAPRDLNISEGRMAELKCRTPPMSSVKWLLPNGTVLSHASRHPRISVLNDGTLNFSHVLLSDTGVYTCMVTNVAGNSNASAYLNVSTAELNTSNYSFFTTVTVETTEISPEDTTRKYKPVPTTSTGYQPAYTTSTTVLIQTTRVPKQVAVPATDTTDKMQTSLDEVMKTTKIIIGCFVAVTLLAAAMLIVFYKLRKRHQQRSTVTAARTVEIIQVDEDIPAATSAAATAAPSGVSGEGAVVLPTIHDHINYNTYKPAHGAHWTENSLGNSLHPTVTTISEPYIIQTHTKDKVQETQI
Description: AUC.

On to “mouse netrin G1 isoform G1f (LN and LE1 domains) (natural protein)”, for which, in assay [1], the Kd was determined as 505 nM and the stoichiometry N amounted to 1. “mouse netrin G1 isoform G1j (LN domain only) (natural protein)” had an equilibrium dissociation constant (Kd) in assay [1] of 1490 nM.

B1: human netrin G2, full ectodomain (LN domain, LE1-3 and C'), lacking only the GPI anchor site (domain or fragment)
chain: DYDICKSWVTTDEGPTWEFYACQPKVMRLKDYVKVKVEPSGITCGDPPERFCSHENPYLCSNECDASNPDLAHPPRLMFDKEEEGLATYWQSITWSRYPSPLEANITLSWNKTVELTDDVVMTFEYGRPTVMVLEKSLDNGRTWQPYQFYAEDCMEAFGMSARRARDMSSSSAHRVLCTEEYSRWAGSKKEKHVRFEVRDRFAIFAGPDLRNMDNLYTRLESAKGLKEFFTLTDLRMRLLRPALGGTYVQRENLYKYFYAISNIEVIGRCKCNLHANLCSMREGSLQCECEHNTTGPDCGKCKKNFRTRSWRAGSYLPLPHGSPNACATAGSFGNCECYGHSNRCSYIDFLNVVTCVSCKHNTRGQHCQHCRLGYYRNGSAELDDENVCIECNCNQIGSVHDRCNETGFCECREGAAGPKCDDCLPTHYWRQGCYPNVCDDDQLLCQNGGTCLQNQRCACPRGYTGVRCEQPRCDPADDDGGLDCDR
B1: in assay [2], the Kd turned out to be 264 nM and the stoichiometry N is 1.

B2: human sNetrin G2 ("short" netrin G2, LN and LE1 domains only) (domain or fragment)
chain: DYDICKSWVTTDEGPTWEFYACQPKVMRLKDYVKVKVEPSGITCGDPPERFCSHENPYLCSNECDASNPDLAHPPRLMFDKEEEGLATYWQSITWSRYPSPLEANITLSWNKTVELTDDVVMTFEYGRPTVMVLEKSLDNGRTWQPYQFYAEDCMEAFGMSARRARDMSSSSAHRVLCTEEYSRWAGSKKEKHVRFEVRDRFAIFAGPDLRNMDNLYTRLESAKGLKEFFTLTDLRMRLLRPALGGTYVQRENLYKYFYAISNIEVIGRCKCNLHANLCSMREGSLQCECEHNTTGPDCGKCKKNFRTRSWRAGSYLPLPHGSPNACATAGS
modifications: N-linked glycans at Asn105 and Asn111 (seen in the crystal structure)
Molecule B2 displayed a Kd in assay [2] of 180 nM.
